Experimental data taken from a protein production outcome set (Wang et al. 2014).

Assay: label from the status in PepcDB records
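Note: failed if final PepcDB status was selected cloned or expressed and not failed if soluble or beyond.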

| Sequence | protein production |
| --- | --- |
| MSLDSDPDTLVVHTQLGTTAPGSPTYLAAVDRFREENPGVKIKNLVNGDDLAQVYETSRLARKEADVVMVNLYDKTLAWTDVGATVDVKPYLDDWGLRGRVLPAALADWTDDEGRVRAFPYFATNWPVAYNRALLDRAGVDAIPTTGDQLIAAARKLRAKGIAPVTVGGNDWTGQKLLAQIIQTFLSQDEARHVYSTGDFGVRGARLGIEYFAHLRDAGVFADKAQGLTSDSMTTQFNTEEAAVQSAMSSALAKVPEKVAGHTEVGGWPLADGAAHDGPTVIRAYTLIGFWISPNGVRKIEQVEKFLRFMYRPDVVARFVTESGRDMALRTDAVSTGFPLVGAAQRLGSEVSQVLLPDVYVPPAAAQPLITATSTSFTRGTSPARVRAALESAYRSVEGHHHHHH | not failed |
| MHLTKTWLAQLPLTDIQQVQPVSGGDINAAFQIITRHHQYFLKVQPHNDVTFFDHEVAGLRLLGAVTKTPRVIASGTIATDGYLLLDWLATGTGSQSALGAAVAKVHHQHHAQFGLDHDFTAGKLPKINHWQTDWATFYTQQRLDVLVNLAKEHHLWSETREMHYHRLRQQLLQDSHMHTVKPSLLHGDLWSGNYLFDTTGTPVLIDPDVFYGDREMDLAMTTIFGGFDTDFYQAYQAAYPVAPGMQDRLPSYQLYYLLAHLNLFGETYGPAVDRILMQY | failed |
| MDFPCLWLGLLLPLVAALDFNYHRQEGMEAFLKTVAQNYSSVTHLHSIGKSVKGRNLWVLVVGRFPKEHRIGIPEFKYVANMHGDETVGRELLLHLIDYLVTSDGKDPEITNLINSTRIHIMPSMNPDGFEAVKKPDCYYSIGRENYNQYDLNRNFPDAFEYNNVSRQPETVAVMKWLKTETFVLSANLHGGALVASYPFDNGVQATGALYSRSLTPDDDVFQYLAHTYASRNPNMKKGDECKNKMNFPNGVTNGYSWYPLQGGMQDYNYIWAQCFEITLELSCCKYPREEKLPSFWNNNKASLIEYIKQVHLGVKGQVFDQNGNPLPNVIVEVQDRKHICPYRTNKYGEYYLLLLPGSYIINVTVPGHDPHITKVIIPEKSQNFSALKKDILLPFQGQLDSIPVSNPSCPMIPLYRNLPDHSAATKPSLFLFLVSLLHIFFK | not failed |
| MEEKKSSGMFAVFAALGANVLVAISKFIGFGLSGSAAMLNESIHSVVDCGNQILLLFGDRRSRQASTNLHQFGEARAKYFFSMIVATFLFFGGGVIGVMEAYDKLVHPAHSVENAGIVIGILLIGMAIEGSSLRVAFKEISELNTEKLPIFKFLHESRHSEILVIFAEDLCAIIGLLLALLGTVLTMVTGNPIFDAISGLLIGFLLMAAAIFLTREFYSLIVGERVTDSDLEKILTAFDRPEVERVINVKTVHLGPTEILIAAKIDLVSKLVLEDYEIINQIEAEIRKKISDKKCYIYIEIDEFVQGYVQSSDL | failed |
| IDTNLLYVFFTSGSTGIPKGVSIAHKSVIDYTFWVCETFKFDENEILANQAPFYFDNSILDIFSSVKSGATLHLLPNHLFAFPNKILECLEKEKVSTIFWVPSVLIYFANTEALNNFSLNALKKMLFCGEIMPNKQLNIWRKHLPNALFANLYGPTEITDVCSFYIINRTFKDEEL | failed |
| MNILLRLQLFFQITGHYASYFLAYIFETIFFLIFVFVSLIAMIYLFRKYMARLQLRYGPNRVGKFGSLQLIADAIKLVGKESILPKLRDDFAYKTAPYIVFIGLVVGFILIPYGDFYWIGSLTITHSDVSLILFFGAIAMMPIGEILAGISSHNKYALLGAMRGVAKDVSFEVPMMLSAIALVMMDSAVNKTPLEFSSLVSTQFIPFGILQPLGLFVFMVAMIARSSYTPFDLSESDSEIVSGYSTEYSGMRFGLFYMGMFGSIFLGSLVISLLYLGGYNGPYSSYAGFIYLLIKGLIMVLISFLIWLSMPRIRIDRFVNFGWKILLPIAIINLIWAGFLTLGVIS | failed |
| KDAAWLNGWTSYNKVAREIVLAEMANTTILEEGKIVAELRRLLPDKAGLFIGNSMPIRDVDTYFSQIDKKIKMLANRGANGIDGVVSSALGASVVFQPMFLLIGDLSFYHDMNGLLMAKKYKMNLTIVIVNNDGGGIFSFLPQANEPKYFESLFGTSTELDFRFAAAFYDADYHEAKSVDELEEAIDKASYHKGLDIIEVKTNRHENKANHQALWVKIADALKALD | failed |
| MVKDLSDMSLKELWQLFPIFLVEHKEEWEDWYEEEKERLLHLLPSQSIKSISHIGSTAVPDIWAKNIVDILLEVPEKEDLQDFKKRLLDAGYLLMSEGEKRLSFNKGYTKDGFAEKVFHLHLRYQGDNDELYFRDYLREYPEVAKDYERLKLGLWEKYEHNRDAYTDAKSDFIRKYTQKAKKNDKGKDN | not failed |
